Test results from PMC2174084.

Biological target: rabbit skeletal muscle actin, polymerized (F-actin) (rabbit) (UniProt P68135)
Experiment: co-sedimentation

- stoichiometry N (Kelch per actin (molar ratio)): 0.25
Substance: full-length Kelch (purified, recombinant; ORF1 cDNA) (natural protein)
